Tests used:
pancreatic acini [1] = assay: Mitochondrial depolarization in pancreatic acini (TMRE); format: cell-based, mouse; details: GsMTx4 5 μM; Yoda1 50 μM; WT cells
Procedure: Live-cell mitochondrial depolarization was analyzed using the mitochondrial labeling dye, TMRE. Isolated acini were plated on a thin-layered, Matrigel-coated, glass-bottom culture plate with DMEM/F12 and 10% FBS media and placed in a CO2 incubator for 1 hr at 37° C. After 1 hr, the acini were incubated with TMRE (200 nM) in the bath buffer containing 140 mM NaCl, 4.7 mM KCl, 2.0 CaCl2, 1 mM MgCl2, 10 mM HEPES, and 10 mM glucose (pH adjusted to 7.4 with NaOH) for 30 minutes. The TMRE dye was washed and replaced with fresh bath buffer. The images were captured with a Zeiss Axio observer Z1 microscope with MetaMorph software (Molecular Devices) at intervals of 600 ms. TMRE was excited at 540-600 nm and emission collected at 585-675 nm. Carbonyl cyanide 4-(trifluoromethoxy) phenylhydrazone (FCCP), which uncouples the oxidative phosphorylation process and depolarizes mitochondria, was used as a positive control. A maximum of 2 mitochondrial puncta were taken per acinar cell.

Piezo1 [2] = biological target: T1, Piezo1 (Mus musculus, UniProt E2JF22); details: pancreatic acini; recently reported; cited from earlier work
T1 construct: Freshly isolated acini were used in each experiment; endogenous in cells; host or cells: freshly isolated mouse pancreatic acini (WT = Piezo1 fl/fl on a C57BL/6J background)

Piezo1 [3] = biological target: T2, Piezo1 (Homo sapiens, UniProt Q92508); assay: Calcium imaging of Piezo1-mediated [Ca2+]i in human PSCs; format: cell-based; details: GsMTx4 5 μM, human PSCs
T2 construct: Fresh, human pancreatic tissue was digested with collagenase as described above with modifications; endogenous in cells; host or cells: primary human pancreatic stellate cells from fresh human pancreatic tissue
Procedure: Mouse and human PSCs were isolated using collagenase digestion. Modified Krebs Henseleit Buffer (KHB) solution (100 mL) was prepared as previously described by Romac et al., Nat. Commun. 9(1):1715 (2018). Pancreatic tissue was digested with 2 mg of collagenase NB 8 (SERVA, catalog 17456) dissolved in 10 mL of modified KHB solution containing 1 mg soybean trypsin inhibitor (SBTI 1-S; Millipore Sigma, catalog T9003) and 20 mg BSA (Thermo Fisher Scientific; BP1600-100). Digestion solution (5 mL) was used to inflate the pancreas. Pancreas with 5 mL of digestion solution was incubated in a shaking water bath for 10 minutes at 37° C. The solution was then discarded. The pancreas tissue was cut into small pieces and digested with fresh 5 mL digestion buffer. Tissue was incubated in a shaking water bath for 40 minutes at 37° C. The cells were then separated from tissue by pipetting up-down with a 10 mL pipette and passed sequentially through a 70 μm and a 40 μm cell strainer. The filtrate was centrifuged at 150×g for 3 minutes at room temperature. The cells were washed with 10 mL Leibovitz's media (Thermo Fisher Scientific, catalog 11415-064), passed through a 20 μm filter, and centrifuged at 80×g for 3 minutes at room temperature. The supernate was removed, and isolated stellate cells were plated on a thin-layered Matrigel-coated glass bottom culture plate (MatTek, P35G-0-14-C). […] The cell viability following Yoda1 treatment was analyzed using the Live/Dead cell imaging kit (Thermo Fisher Scientific, catalog R37601). […]
Fluid shear stress and mechanical pushing applied to stellate cells were achieved as previously described by Wang et al., J. Clin. Invest. […] The fluid shear stress (T) was calculated using the formula: τ=η×[…] φ for μ-Slide I 0.4 Luer and τ=η×330.4 φ for μ-Slide I 0.2 Luer, where r represents viscosity of the medium and φ represents flow rate (according to the manufacturer's instructions, Ibidi). […]

human PSCs = assay: Human PSC activation and fibrogenic response (fat droplets, cell shape, ECM mRNA and immunostaining); format: cell-based; details: GsMTx4 5 μM, 12 or 25 dyne/cm^2 for 10 minutes
Procedure: (§1) Mouse and human PSCs were isolated using collagenase digestion. Modified Krebs Henseleit Buffer (KHB) solution (100 mL) was prepared as previously described by Romac et al., Nat. Commun. 9(1):1715 (2018). Pancreatic tissue was digested with 2 mg of collagenase NB 8 (SERVA, catalog 17456) dissolved in 10 mL of modified KHB solution containing 1 mg soybean trypsin inhibitor (SBTI 1-S; Millipore Sigma, catalog T9003) and 20 mg BSA (Thermo Fisher Scientific; BP1600-100). Digestion solution (5 mL) was used to inflate the pancreas. Pancreas with 5 mL of digestion solution was incubated in a shaking water bath for 10 minutes at 37° C. The solution was then discarded. The pancreas tissue was cut into small pieces and digested with fresh 5 mL digestion buffer. Tissue was incubated in a shaking water bath for 40 minutes at 37° C. The cells were then separated from tissue by pipetting up-down with a 10 mL pipette and passed sequentially through a 70 μm and a 40 μm cell strainer. The filtrate was centrifuged at 150×g for 3 minutes at room temperature. The cells were washed with 10 mL Leibovitz's media (Thermo Fisher Scientific, catalog 11415-064), passed through a 20 μm filter, and centrifuged at 80×g for 3 minutes at room temperature. The supernate was removed, and isolated stellate cells were plated on a thin-layered Matrigel-coated glass bottom culture plate (MatTek, P35G-0-14-C). Before plating the cells, Matrigel solution (Corning, catalog 354234) at a ratio of 1.5:100 DMEM/F12 (Thermo Fisher Scientific, catalog 11330-032) was poured onto the culture plate and incubated for 2 hr at 37° C. to form a thin layer of Matrigel coating. Matrigel mixture was removed, and the plate was washed with PBS before cells were plated. Cell culture media, DMEM/F12 with 5% FBS was used for mouse stellate cells. Fresh, human pancreatic tissue was digested with collagenase as described above with modifications. Collagenase (2.5 mg) in 10 mL of modified KHB solution was used for digestion. The digested tissues were filtered through a 100 μm cell strainer. The cells were cultured with DMEM/F12 with 10% FBS in a Matrigel-coated plate. After 24 hr, the cell media was replaced with fresh media to remove unattached and dead cells. After 2 days, cells were immunostained for GFAP and used for experiments. Perinuclear fat droplets were stained with BODIPY 493/503 (4,4-Difluoro-1,3,5,7,8-Pentamethyl-4-Bora-3a,4a-Diaza-s-Indacene; Invitrogen, catalog D3922) to confirm stellate cell quiescence. The cell viability following Yoda1 treatment was analyzed using the Live/Dead cell imaging kit (Thermo Fisher Scientific, catalog R37601). RNAs were isolated using the RiboPure Kit (Invitrogen, catalog AM1924) according to manufacturer's instructions.
(§2) Fluid shear stress and mechanical pushing applied to stellate cells were achieved as previously described by Wang et al., J. Clin. Invest. 126(12): 4527-4536 (2016). Parallel-plate fluid flow chambers (μ-Slide I 0.4 Luer, or μ-Slide I 0.2 Luer from Ibidi) were used for fluid shear stress experiments. The fluid shear stress (T) was calculated using the formula: τ=η×[…] φ for μ-Slide I 0.4 Luer and τ=η×330.4 φ for μ-Slide I 0.2 Luer, where r represents viscosity of the medium and φ represents flow rate (according to the manufacturer's instructions, Ibidi). Mechanical pushing was achieved by applying a blunt borosilicate glass pipette once to the cell membrane with a deflection of 2-3 μm for 1 second using a micromanipulator (World Precision Instruments).
Mouse and human PSCs were washed with PBS (pH 7.4) and fixed with 4% paraformaldehyde for 10 minutes at room temperature. The fixed cells were treated with 0.1% Triton X-100. […]

Piezo1 [4] = biological target: T1, Piezo1; assay: Calcium imaging of Piezo1-mediated [Ca2+]i in mouse PSCs; format: cell-based; details: GsMTx4 5 μM
Procedure: as §1, §2
Calcium 6-QF (Molecular Devices) dye was used for live-cell calcium imaging as described by Romac et al., Nat. Commun. 9(1):1715 (2018). Cells were imaged in HBSS buffer with 2 mM Ca^2+. Faintly and highly fluorescent loaded cells were excluded from analysis. […]

Piezo1 [5] = biological target: T1, Piezo1; assay: Mechanical pushing-induced [Ca2+]i in pancreatic acini; format: cell-based; details: prior treatment with GsMTx4; blunt pipette 5 μm for 1 second
Procedure: A borosilicate glass pipette (Sutter Instrument) was pulled using a pipette puller P-87 (Sutter Instruments) and made blunt with an MF-900 Microforge (Narishige). Acini were pushed once with a 2- to 3-μm tip blunt pipette to 5 μm for 1 second using a micromanipulator (World Precision Instruments).
Calcium imaging in pancreatic acini was performed as previously described. The chemicals used in calcium imaging experiments included the following: Yoda1 (Tocris; 5586), GsMTx4 (Abcam; ab141871), 5′,6′-EET (Santa Cruz Biotechnology; sc-221066), AA (Millipore Sigma; A3611), HC067047 (Tocris; 4100), GSK1016790A (Millipore Sigma; G0798), RN1734 (Tocris; 3746), AACOCF3 (Tocris; 1462), YM26734 (Tocris; 2522), GF109203X (Tocris; 0741), and CCK8 (Sigma-Aldrich).

pancreatic acini [6] = assay: Trypsinogen activation in pancreatic acini (BZiPAR); format: cell-based, mouse; details: GsMTx4 5 μM
Procedure: To visualize Piezo1-induced trypsinogen activation, acini were loaded with active trypsin enzyme substrate BZiPAR (10 μM). Na-HEPES buffer with 2 mM Ca^2+ was used during imaging. A Zeiss Axio observer Z1 with a high-sensitivity EMCCD camera with a ×40/0.75 EC-Plan-NeoFluar DIC objective was used to capture the Z-stack images with stack thickness of 3 μm at an interval of 12 seconds. The BZiPAR fluorescent wavelength Ex/Em was 498/521 nm. BZiPAR was excited at 470-510 nm and emission collected at 495-550 nm. The captured images were analyzed with MetaMorph software (Molecular Devices).

T1 sequence (E2JF22 whole entry): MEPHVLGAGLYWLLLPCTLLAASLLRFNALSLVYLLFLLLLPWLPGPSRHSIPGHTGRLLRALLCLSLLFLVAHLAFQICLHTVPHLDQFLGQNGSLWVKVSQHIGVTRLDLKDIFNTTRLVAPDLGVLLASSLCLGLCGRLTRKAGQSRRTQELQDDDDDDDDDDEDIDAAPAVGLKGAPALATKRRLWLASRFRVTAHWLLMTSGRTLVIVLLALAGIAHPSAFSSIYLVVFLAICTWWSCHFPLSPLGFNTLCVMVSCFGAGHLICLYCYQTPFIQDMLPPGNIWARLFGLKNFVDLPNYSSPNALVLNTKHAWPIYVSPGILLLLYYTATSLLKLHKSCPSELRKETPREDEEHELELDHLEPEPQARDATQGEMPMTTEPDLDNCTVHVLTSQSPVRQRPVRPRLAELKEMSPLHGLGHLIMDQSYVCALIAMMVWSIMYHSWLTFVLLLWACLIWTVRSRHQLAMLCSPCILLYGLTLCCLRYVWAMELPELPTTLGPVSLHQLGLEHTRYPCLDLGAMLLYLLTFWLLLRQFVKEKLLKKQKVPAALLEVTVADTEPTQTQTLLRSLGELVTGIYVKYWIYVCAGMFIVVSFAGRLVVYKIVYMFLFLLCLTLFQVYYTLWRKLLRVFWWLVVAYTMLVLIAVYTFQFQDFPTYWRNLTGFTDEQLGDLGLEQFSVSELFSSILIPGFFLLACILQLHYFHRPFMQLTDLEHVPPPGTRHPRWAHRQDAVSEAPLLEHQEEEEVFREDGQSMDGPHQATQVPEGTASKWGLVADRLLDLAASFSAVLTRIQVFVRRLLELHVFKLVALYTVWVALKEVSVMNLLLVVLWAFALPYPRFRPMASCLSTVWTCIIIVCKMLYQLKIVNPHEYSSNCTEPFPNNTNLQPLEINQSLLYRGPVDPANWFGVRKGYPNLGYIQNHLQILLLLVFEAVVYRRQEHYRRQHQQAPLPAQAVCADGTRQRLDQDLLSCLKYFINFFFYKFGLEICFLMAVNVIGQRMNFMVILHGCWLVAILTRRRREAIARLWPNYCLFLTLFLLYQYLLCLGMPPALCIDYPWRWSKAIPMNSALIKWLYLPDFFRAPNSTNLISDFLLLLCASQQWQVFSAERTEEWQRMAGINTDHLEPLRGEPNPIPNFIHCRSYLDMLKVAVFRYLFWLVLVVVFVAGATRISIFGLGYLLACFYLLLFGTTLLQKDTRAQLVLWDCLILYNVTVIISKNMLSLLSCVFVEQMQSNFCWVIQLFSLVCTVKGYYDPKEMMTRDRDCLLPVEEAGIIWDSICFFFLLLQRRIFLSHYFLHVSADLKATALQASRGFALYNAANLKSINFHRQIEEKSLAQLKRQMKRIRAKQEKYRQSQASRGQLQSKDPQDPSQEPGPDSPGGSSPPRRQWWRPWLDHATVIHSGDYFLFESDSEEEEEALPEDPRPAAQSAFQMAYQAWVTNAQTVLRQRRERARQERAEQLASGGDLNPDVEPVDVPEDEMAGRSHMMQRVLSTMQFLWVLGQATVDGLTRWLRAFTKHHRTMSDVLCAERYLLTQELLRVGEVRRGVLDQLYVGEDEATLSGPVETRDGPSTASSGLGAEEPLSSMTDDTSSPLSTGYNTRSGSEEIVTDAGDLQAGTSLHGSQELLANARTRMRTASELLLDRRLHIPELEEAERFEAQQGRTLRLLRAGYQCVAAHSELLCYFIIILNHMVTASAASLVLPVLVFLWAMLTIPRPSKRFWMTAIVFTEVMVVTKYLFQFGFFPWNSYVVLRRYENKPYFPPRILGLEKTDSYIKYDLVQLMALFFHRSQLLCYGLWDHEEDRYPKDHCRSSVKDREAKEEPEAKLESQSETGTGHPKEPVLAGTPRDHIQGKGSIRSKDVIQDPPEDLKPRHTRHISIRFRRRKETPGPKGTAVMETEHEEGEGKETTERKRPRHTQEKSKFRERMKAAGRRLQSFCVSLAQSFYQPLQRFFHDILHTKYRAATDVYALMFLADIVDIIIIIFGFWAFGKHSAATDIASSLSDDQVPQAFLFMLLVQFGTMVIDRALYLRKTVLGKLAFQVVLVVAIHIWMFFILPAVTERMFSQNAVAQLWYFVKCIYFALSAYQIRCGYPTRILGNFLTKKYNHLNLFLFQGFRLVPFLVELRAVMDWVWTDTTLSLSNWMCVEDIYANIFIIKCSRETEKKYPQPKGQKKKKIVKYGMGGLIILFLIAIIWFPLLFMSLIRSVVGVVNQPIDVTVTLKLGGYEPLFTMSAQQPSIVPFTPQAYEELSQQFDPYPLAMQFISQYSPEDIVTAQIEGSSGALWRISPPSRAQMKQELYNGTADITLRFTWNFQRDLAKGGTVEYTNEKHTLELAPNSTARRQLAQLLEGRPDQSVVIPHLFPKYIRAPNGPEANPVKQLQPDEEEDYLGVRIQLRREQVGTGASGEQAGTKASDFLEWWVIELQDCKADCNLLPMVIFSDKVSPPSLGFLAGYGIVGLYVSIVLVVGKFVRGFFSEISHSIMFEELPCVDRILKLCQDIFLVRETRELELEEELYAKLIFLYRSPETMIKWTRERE
T2 sequence (Q92508 whole entry): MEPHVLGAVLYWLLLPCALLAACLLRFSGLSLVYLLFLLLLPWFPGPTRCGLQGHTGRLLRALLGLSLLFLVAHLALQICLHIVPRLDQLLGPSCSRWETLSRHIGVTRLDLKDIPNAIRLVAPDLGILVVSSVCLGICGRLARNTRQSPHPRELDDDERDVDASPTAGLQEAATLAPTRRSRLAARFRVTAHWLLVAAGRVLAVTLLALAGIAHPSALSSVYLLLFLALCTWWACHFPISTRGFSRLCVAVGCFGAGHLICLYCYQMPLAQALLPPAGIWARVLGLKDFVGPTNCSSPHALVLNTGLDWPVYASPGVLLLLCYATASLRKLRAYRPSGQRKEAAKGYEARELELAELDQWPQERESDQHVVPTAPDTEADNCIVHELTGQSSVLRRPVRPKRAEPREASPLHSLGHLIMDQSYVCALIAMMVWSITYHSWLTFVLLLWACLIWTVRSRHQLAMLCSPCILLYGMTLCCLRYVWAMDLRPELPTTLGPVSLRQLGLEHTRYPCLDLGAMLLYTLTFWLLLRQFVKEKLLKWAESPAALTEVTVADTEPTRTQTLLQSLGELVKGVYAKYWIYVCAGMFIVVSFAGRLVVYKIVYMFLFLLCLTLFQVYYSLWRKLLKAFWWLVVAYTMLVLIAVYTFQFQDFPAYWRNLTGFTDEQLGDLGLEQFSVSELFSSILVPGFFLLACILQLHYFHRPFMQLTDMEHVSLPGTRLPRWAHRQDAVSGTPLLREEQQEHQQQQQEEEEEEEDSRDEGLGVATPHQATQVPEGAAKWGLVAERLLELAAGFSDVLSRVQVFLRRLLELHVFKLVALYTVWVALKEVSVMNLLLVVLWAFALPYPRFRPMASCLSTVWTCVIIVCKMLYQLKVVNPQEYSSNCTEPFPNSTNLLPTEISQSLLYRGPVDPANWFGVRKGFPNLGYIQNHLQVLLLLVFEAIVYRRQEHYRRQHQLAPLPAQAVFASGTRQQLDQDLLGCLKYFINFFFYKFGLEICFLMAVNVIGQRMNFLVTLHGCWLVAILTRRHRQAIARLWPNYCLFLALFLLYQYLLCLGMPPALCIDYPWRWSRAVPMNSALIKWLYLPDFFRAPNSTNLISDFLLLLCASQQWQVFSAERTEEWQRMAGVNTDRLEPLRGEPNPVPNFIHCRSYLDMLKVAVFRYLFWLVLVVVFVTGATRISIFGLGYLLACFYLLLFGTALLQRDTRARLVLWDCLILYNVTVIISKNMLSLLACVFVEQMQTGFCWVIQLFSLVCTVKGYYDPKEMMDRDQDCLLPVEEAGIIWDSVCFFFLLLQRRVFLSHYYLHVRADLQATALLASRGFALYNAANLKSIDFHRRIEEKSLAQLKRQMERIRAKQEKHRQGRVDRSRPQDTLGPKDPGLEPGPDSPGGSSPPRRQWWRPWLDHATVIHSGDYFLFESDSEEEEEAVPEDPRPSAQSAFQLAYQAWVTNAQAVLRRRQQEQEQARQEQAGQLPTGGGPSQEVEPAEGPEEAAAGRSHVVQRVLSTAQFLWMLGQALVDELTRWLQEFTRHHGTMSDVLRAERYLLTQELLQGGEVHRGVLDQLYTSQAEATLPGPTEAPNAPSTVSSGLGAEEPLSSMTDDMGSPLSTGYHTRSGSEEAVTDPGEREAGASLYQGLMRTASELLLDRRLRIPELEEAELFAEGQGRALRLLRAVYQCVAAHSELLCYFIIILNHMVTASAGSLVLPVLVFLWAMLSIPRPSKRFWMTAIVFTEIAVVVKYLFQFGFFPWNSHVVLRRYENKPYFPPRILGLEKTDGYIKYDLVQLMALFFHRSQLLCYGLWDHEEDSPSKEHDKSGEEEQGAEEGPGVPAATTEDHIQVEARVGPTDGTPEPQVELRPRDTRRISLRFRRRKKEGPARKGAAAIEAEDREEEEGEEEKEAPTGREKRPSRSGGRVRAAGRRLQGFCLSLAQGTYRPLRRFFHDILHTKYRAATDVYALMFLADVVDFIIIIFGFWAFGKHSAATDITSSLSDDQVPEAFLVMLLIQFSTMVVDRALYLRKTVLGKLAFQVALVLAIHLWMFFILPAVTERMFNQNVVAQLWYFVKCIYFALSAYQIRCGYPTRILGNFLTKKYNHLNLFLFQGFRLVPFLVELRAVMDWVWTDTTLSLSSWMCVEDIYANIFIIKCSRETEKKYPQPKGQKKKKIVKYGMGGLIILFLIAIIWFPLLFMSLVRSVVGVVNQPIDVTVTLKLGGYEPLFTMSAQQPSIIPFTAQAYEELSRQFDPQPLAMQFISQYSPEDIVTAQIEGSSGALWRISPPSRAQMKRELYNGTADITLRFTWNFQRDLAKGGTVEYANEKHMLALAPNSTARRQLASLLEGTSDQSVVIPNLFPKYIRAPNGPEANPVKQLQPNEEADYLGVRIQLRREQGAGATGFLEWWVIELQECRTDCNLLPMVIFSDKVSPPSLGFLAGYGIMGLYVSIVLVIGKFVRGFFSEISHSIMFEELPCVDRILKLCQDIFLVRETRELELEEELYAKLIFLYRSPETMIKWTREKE

Question: Which “effect on Yoda1-induced mitochondrial depolarization” value (pancreatic acini [1]) does the source give for “GsMTx4 (GCLEFWWKCNPNDDKCCRPKLKCSKLFKLCNFSF; HELM PEPTIDE1{G.C.L.E.F.W.W.K.C.N.P.N.D.D.K.C.C.R.P.K.L.K.C.S.K.L.F.K.L.C.N.F.S.F.[am]}$PEPTIDE1,PEPTIDE1,16:R3-30:R3|PEPTIDE1,PEPTIDE1,2:R3-17:R3|PEPTIDE1,PEPTIDE1,9:R3-23:R3$$$V2.0; N-terminus assumed; SMILES CC(C)C[C@@H]1NC(=O)[C@@H](NC(=O)CN)CSSC[C@@H]2NC(=O)[C@@H]3CSSC[C@@H](C(=O)N[C@@H](CC(N)=O)C(=O)N[C@@H](Cc4ccccc4)C(=O)N[C@@H](CO)C(=O)N[C@@H](Cc4ccccc4)C(N)=O)NC(=O)[C@H](CC(C)C)NC(=O)[C@H](CCCCN)NC(=O)[C@H](Cc4ccccc4)NC(=O)[C@H](CC(C)C)NC(=O)[C@H](CCCCN)NC(=O)[C@H](CO)NC(=O)[C@H](CSSC[C@H](NC(=O)[C@H](CCCCN)NC(=O)[C@H](Cc4c[nH]c5ccccc45)NC(=O)[C@H](Cc4c[nH]c5ccccc45)NC(=O)[C@H](Cc4ccccc4)NC(=O)[C@H](CCC(=O)O)NC1=O)C(=O)N[C@@H](CC(N)=O)C(=O)N1CCC[C@H]1C(=O)N[C@@H](CC(N)=O)C(=O)N[C@@H](CC(=O)O)C(=O)N[C@@H](CC(=O)O)C(=O)N[C@@H](CCCCN)C(=O)N3)NC(=O)[C@H](CCCCN)NC(=O)[C@H](CC(C)C)NC(=O)[C@H](CCCCN)NC(=O)[C@@H]1CCCN1C(=O)[C@H](CCCNC(=N)N)NC2=O; UniProt Q7YT39 47-80, looked up)” here?
Answer: blocked the Yoda1-induced mitochondrial depolarization

Question: And the “effect on Yoda1-mediated [Ca2+]i rise” value (Piezo1 [2])?
Answer: inhibits the Yoda1-mediated [Ca^2+]i rise

Question: And the “effect on Yoda1 (25 μM)-mediated [Ca2+]i rise” value (Piezo1 [3])?
Answer: sensitive to GsMTx4 blockade

Question: And the “effect on fluid shear stress-induced sustained [Ca2+]i increase” value (Piezo1 [3]; 12 dyne/cm^2 for 1 minute)?
Answer: blocked

Question: What about the “effect on shear stress-mediated pathological changes (fat droplet loss, fibronectin, collagen type I)” value (human PSCs) of the same substance?
Answer: attenuated the shear stress-mediated pathological changes

Question: What about the “effect on Yoda1-induced calcium rise” value (Piezo1 [4]; mouse PSCs) of the same substance?
Answer: blocked the calcium rise produced by Yoda1

Question: And the “effect on shear stress-induced transient [Ca2+]i elevation in TRPV4-null PSCs” value (Piezo1 [4]; 12 dyne/cm^2 for 1 minute)?
Answer: blocked the effects of high shear stress (12 dyne/cm^2 for 1 minute) on the transient [Ca^2+]i elevation

Question: What about the “effect on mechanical pushing-induced transient [Ca2+]i rise” value (Piezo1 [5]) of the same substance?
Answer: completely blocked

Question: And the “effect on Yoda1-induced trypsin activation” value (pancreatic acini [6])?
Answer: blocked the Yoda1-induced trypsin activation

— patent US20250352615A1, “COMPOSITIONS AND METHODS FOR THE MODULATION OF PIEZO1 AND TRPV4” (Duke University, priority 2021, published 2025)
